Data on 2 proteins can be found in publication PMC4883682, “STIM1 activation is regulated by a 14 amino acid sequence adjacent to the CRAC activation domain” (AIMS biophysics, 2016).

The data set deals with the molecule itself. In words: cross-linking; chemical crosslinking with dithiobis(succinymidyl propionate); constructs separately expressed; unstimulated state (Supplemental Figure S2).

B1: STIM1(del344-448)-mApple (natural protein, human, UniProt Q13586 23-685, looked up)
chain: LSHSHSEKATGTSSGANSEESTAAEFCRIDKPLCHSEDEKLSFEAVRNIHKLMDDDANGDVDVEESDEFLREDLNYHDPTVKHSTFHGEDKLISVEDLWKAWKSSEVYNWTVDEVVQWLITYVELPQYEETFRKLQLSGHAMPRLAVTNTTMTGTVLKMTDRSHRQKLQLKALDTVLFGPPLLTRHNHLKDFMLVVSIVIGVGGCWFAYIQNRYSKEHMKKMMKDLEGLHRAEQSLHDLQERLHKAQEEHRTVEVEKVHLEKKLRDEINLAKQEAQRLKELREGTENERSRQKYAEEELEQVREALRKAEKELESHSSWYASLVAALNIDPSWMGSTRPNPAHFIMTDDVDDMDEEIVSPLSMQSPSLQSSVRQRLTEPQHGLGSQRDLTHSDSESSLHMSDRQRVAPKPPQMSRAADEALNAMTSNGSHRLIEGVHPGSLVEKLPDSPALAKKALLALNHGLDKAHSLMELSPSAPPGGSPHLDSSRSHSPSSPDPDTPSPVGDSRALQASRNTRIPHLAGKKAVAEEDNGSIGEETDSSPGRKKFPLKIFKKPLKK
notes: signal peptide in the construct; source: COS7 cells, transiently transfected (Lipofectamine 2000), in live cells; not shown: mApple, C-terminal, kept
With B1, the “stoichiometry N” value was 2.

B2: STIM1(del302-462)-mApple (natural protein, human, UniProt Q13586 23-685, looked up)
chain: LSHSHSEKATGTSSGANSEESTAAEFCRIDKPLCHSEDEKLSFEAVRNIHKLMDDDANGDVDVEESDEFLREDLNYHDPTVKHSTFHGEDKLISVEDLWKAWKSSEVYNWTVDEVVQWLITYVELPQYEETFRKLQLSGHAMPRLAVTNTTMTGTVLKMTDRSHRQKLQLKALDTVLFGPPLLTRHNHLKDFMLVVSIVIGVGGCWFAYIQNRYSKEHMKKMMKDLEGLHRAEQSLHDLQERLHKAQEEHRTVEVEKVHLEKKLRDEINLAKQEAQRLKSTRPNPAHFIMTDDVDDMDEEIVSPLSMQSPSLQSSVRQRLTEPQHGLGSQRDLTHSDSESSLHMSDRQRVAPKPPQMSRAADEALNAMTSNGSHRLIEGVHPGSLVEKLPDSPALAKKALLALNHGLDKAHSLMELSPSAPPGGSPHLDSSRSHSPSSPDPDTPSPVGDSRALQASRNTRIPHLAGKKAVAEEDNGSIGEETDSSPGRKKFPLKIFKKPLKK
notes: as for B1
Regarding B2, the “stoichiometry N” value was 2.

Usually stoichiometry N stands for a count of units in the complex or per binding partner.
